A short description of the data set: self-splicing fitness, log relative to wild type (ln ratio); higher = more splicing; Tetrahymena group I intron in knt gene, E. coli kanamycin selection, DiMSum; sequences stand for … in CUCUCU…GGAGGGAAAAGUUAUCAGGCAUGCACCUGGUAGCUAGUCUUUAAACCAAUAGAUUGCAUCGGUUUAAAAGGCAAGACCGUCAAAUUGCGGGAAAGGGGUCAACAGCCGUUCAGUACCAAGUCUCAGGGGAAACUUUGAGAUGGCCUUGCAAAGGGUAUGGUAAUAAGCUGACGGACAUGGUCCUAACCACGCAGCCAAGUCCUAAGUCAACAGAUCUUCUGUUGAUAUGGAUGCAGUUCACAGACUAAAUGUCGGUCGGGGAAGAUGUAUUCUUCUCAUAAGAUAUAGUCGGACCUCUCCUUAAUGGGAGCUAGCGGAUGAAGUGAUGCAACACUGGAGCCGCUGGGAACUAAUUUGUAUGCGAAAGUAUAUUGAUUAGUUUUGGAGUACUCGUGGUCG
The procedure, abridged: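 DiMSum derived fitness as the error-weighted combination of fold changes across replicates, kanamycin versus no kanamycin, normalised to wild type. E. coli BL21(DE3) held the library, which randomised all eight P1ex-region intron nucleotides within the knt kanamycin-resistance gene on pET-22b(+). Six replicate transformations grew overnight at 37°C or 30°C on LB agar with or without 25 μg/mL kanamycin, also containing 100 μg/mL carbenicillin, 50 μM IPTG and 0.2% rhamnose, and pooled colonies were amplicon-sequenced on an Illumina HiSeq 2500.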

± gives the uncertainty stated by the source.

Regarding UGCAAGCAAUAUUACGCGAA, the “self-splicing fitness (ln)” value is -2.03 ± 0.1 (30 °C) and -0.581 ± 0.083 (37 °C).
Regarding UGCAAGCAAUAUUACGCGGC, the “self-splicing fitness (ln)” value by setting is: (30 °C) -2.85 ± 0.17; (37 °C) -2.3 ± 0.2.
Regarding UGCAAGCAAUAUUACGCUGA, the “self-splicing fitness (ln)” value runs as follows: (30 °C) -2.78 ± 0.12; (37 °C) -0.102 ± 0.09.
In the case of UGCAAGCAAUAUUACGCUGG, the “self-splicing fitness (ln)” value reads like this: (30 °C) -4 ± 0.35; (37 °C) -3.17 ± 0.24.
In the case of UGCAAGCAAUAUUACGGACG, the “self-splicing fitness (ln)” value is, setting by setting: (30 °C) -0.345 ± 0.068; (37 °C) -0.0664 ± 0.087.
UGCAAGCAAUAUUACGGCCU: the “self-splicing fitness (ln)” value is, setting by setting: (30 °C) -0.521 ± 0.059; (37 °C) -0.286 ± 0.079.
As for UGCAAGCAAUAUUACGGCGC, the “self-splicing fitness (ln)” value was -3.27 ± 0.18 (30 °C) and -2.84 ± 0.31 (37 °C).
For the sequence UGCAAGCAAUAUUACGGCGU, the “self-splicing fitness (ln)” value was -1.24 ± 0.071 (30 °C) and -0.6 ± 0.091 (37 °C).
For UGCAAGCAAUAUUACGGUCG the same measures were -0.179 ± 0.073 and 0.595 ± 0.088.
Consider UGCAAGCAAUAUUACGUACG, for which the “self-splicing fitness (ln)” value reads like this: (30 °C) -0.89 ± 0.12; (37 °C) -0.478 ± 0.1.
Take UGCAAGCAAUAUUACGUCAU: the “self-splicing fitness (ln)” value is -3.29 ± 0.13 (30 °C) and -2.17 ± 0.14 (37 °C).
UGCAAGCAAUAUUACGUCCU: the “self-splicing fitness (ln)” value is, setting by setting: (30 °C) -0.656 ± 0.094; (37 °C) -0.908 ± 0.098.
As for UGCAAGCAAUAUUACGUGAC, the “self-splicing fitness (ln)” value runs as follows: (30 °C) -2.65 ± 0.39; (37 °C) -2.19 ± 0.28.
For UGCAAGCAAUAUUACGUGGC the same measures were -2.62 ± 0.16 and -1.68 ± 0.2.
In the case of UGCCAGCAAUAUUACGAACG, the “self-splicing fitness (ln)” value is, setting by setting: (30 °C) 0.252 ± 0.055; (37 °C) 0.281 ± 0.067.
As to UGCCAGCAAUAUUACGAAUC, the “self-splicing fitness (ln)” value (30 °C) was -4.4 ± 0.46.
For UGCCAGCAAUAUUACGACCG, the “self-splicing fitness (ln)” value (30 °C) was -0.712 ± 0.1 and the “self-splicing fitness (ln)” value (37 °C) was found to be 0.509 ± 0.14.
UGCCAGCAAUAUUACGAGGG: the “self-splicing fitness (ln)” value was -2.61 ± 0.18 (30 °C) and -1.94 ± 0.19 (37 °C).
For UGCCAGCAAUAUUACGAGGU, the “self-splicing fitness (ln)” value is -3.06 ± 0.13 (30 °C) and -3.99 ± 0.3 (37 °C).
For UGCCAGCAAUAUUACGAUCU the same measures were -2.48 ± 0.1 and -1.44 ± 0.1.
As for UGCCAGCAAUAUUACGAUGU, the “self-splicing fitness (ln)” value by setting is: (30 °C) -4.66 ± 0.26; (37 °C) -1.34 ± 0.15.
Regarding UGCCAGCAAUAUUACGCAAG, the “self-splicing fitness (ln)” value is -3.07 ± 0.24 (30 °C) and -3.65 ± 0.46 (37 °C).
With UGCCAGCAAUAUUACGCCCU, the “self-splicing fitness (ln)” value (30 °C) is -1.49 ± 0.11 and the “self-splicing fitness (ln)” value (37 °C) is -0.167 ± 0.13.
Consider UGCCAGCAAUAUUACGCCGC, for which the “self-splicing fitness (ln)” value is -2.25 ± 0.23 (30 °C) and -1.49 ± 0.22 (37 °C).
Taken in the same sequence, the figures for UGCCAGCAAUAUUACGCUGU were -3.59 ± 0.37 and -1.37 ± 0.17.
Taken in the same sequence, the figures for UGCCAGCAAUAUUACGGAGA were -1.47 ± 0.096 and -0.852 ± 0.098.
Consider UGCCAGCAAUAUUACGGAGC, for which the “self-splicing fitness (ln)” value (30 °C) was -3.73 ± 0.4 and the “self-splicing fitness (ln)” value (37 °C) was -3.1 ± 0.35.
Regarding UGCCAGCAAUAUUACGGAGG, the “self-splicing fitness (ln)” value was -3.51 ± 0.17 (30 °C) and -1.83 ± 0.17 (37 °C).
As to UGCCAGCAAUAUUACGGCAA, the “self-splicing fitness (ln)” value runs as follows: (30 °C) -1.4 ± 0.079; (37 °C) -1.52 ± 0.085.
Turning to UGCCAGCAAUAUUACGGCGU, the “self-splicing fitness (ln)” value reads like this: (30 °C) -3.04 ± 0.16; (37 °C) -3.16 ± 0.27.
For the sequence UGCCAGCAAUAUUACGGUAU, the “self-splicing fitness (ln)” value runs as follows: (30 °C) -3.55 ± 0.16; (37 °C) -2 ± 0.19.
UGCCAGCAAUAUUACGGUCU: the “self-splicing fitness (ln)” value was -0.21 ± 0.059 (30 °C) and 0.456 ± 0.07 (37 °C).
For UGCCAGCAAUAUUACGUACC, the “self-splicing fitness (ln)” value is, setting by setting: (30 °C) -3.09 ± 0.22; (37 °C) -1.98 ± 0.21.
Regarding UGCCAGCAAUAUUACGUAUG, the “self-splicing fitness (ln)” value is -1.2 ± 0.069 (30 °C) and -0.775 ± 0.095 (37 °C).
For UGCCAGCAAUAUUACGUCAA the same measures were -1.93 ± 0.11 and -1.08 ± 0.093.
In the case of UGCCAGCAAUAUUACGUCGA, the “self-splicing fitness (ln)” value runs as follows: (30 °C) -1.17 ± 0.088; (37 °C) -0.949 ± 0.11.
With UGCCAGCAAUAUUACGUGGC, the “self-splicing fitness (ln)” value is -3.24 ± 0.19 (30 °C) and -3.19 ± 0.25 (37 °C).
Turning to UGCCAGCAAUAUUACGUGGU, the “self-splicing fitness (ln)” value (30 °C) was -3.85 ± 0.21 and the “self-splicing fitness (ln)” value (37 °C) is -2.83 ± 0.19.
Take UGCGAGCAAUAUUACGAAUC: the “self-splicing fitness (ln)” value runs as follows: (30 °C) -4.3 ± 0.43; (37 °C) -2.41 ± 0.23.
Turning to UGCGAGCAAUAUUACGACCA, the “self-splicing fitness (ln)” value (30 °C) is -0.371 ± 0.18.
As for UGCGAGCAAUAUUACGACUG, the “self-splicing fitness (ln)” value (30 °C) was -0.639 ± 0.17 and the “self-splicing fitness (ln)” value (37 °C) was -0.0696 ± 0.2.
UGCGAGCAAUAUUACGAGAU: the “self-splicing fitness (ln)” value reads like this: (30 °C) -2.4 ± 0.33; (37 °C) -3.21 ± 0.35.
On to UGCGAGCAAUAUUACGAGGA, for which the “self-splicing fitness (ln)” value is -3.56 ± 0.18 (30 °C) and -2.75 ± 0.18 (37 °C).
UGCGAGCAAUAUUACGAUGU: the “self-splicing fitness (ln)” value by setting is: (30 °C) -3.53 ± 0.13; (37 °C) -2.97 ± 0.18.
Turning to UGCGAGCAAUAUUACGAUUG, the “self-splicing fitness (ln)” value is -2.09 ± 0.1 (30 °C) and -1.35 ± 0.16 (37 °C).
For UGCGAGCAAUAUUACGCAAU, the “self-splicing fitness (ln)” value is -3.57 ± 0.18 (30 °C) and -2.72 ± 0.14 (37 °C).
As for UGCGAGCAAUAUUACGCACU, the “self-splicing fitness (ln)” value is -1.68 ± 0.27 (30 °C) and -1.66 ± 0.24 (37 °C).
Consider UGCGAGCAAUAUUACGGACU, for which the “self-splicing fitness (ln)” value (37 °C) was -1.12 ± 0.34.
Same read-out and setting: the same measure for UGCGAGCAAUAUUACGGAGU: -2.08 ± 0.3.
For the sequence UGCGAGCAAUAUUACGGGGC, for the setting “30 °C”, the “self-splicing fitness (ln)” value was -3.09 ± 0.27.
Take UGCGAGCAAUAUUACGGUCA: the “self-splicing fitness (ln)” value was -0.764 ± 0.071 (30 °C) and -0.397 ± 0.077 (37 °C).
Turning to UGCGAGCAAUAUUACGGUUC, where the note is “30 °C”, the “self-splicing fitness (ln)” value is -2.75 ± 0.28.
For UGCGAGCAAUAUUACGUCAU, the “self-splicing fitness (ln)” value by setting is: (30 °C) -4.84 ± 0.46; (37 °C) -2.95 ± 0.23.
Taken in the same sequence, the figures for UGCGAGCAAUAUUACGUCGA were -2.22 ± 0.16 and -1.85 ± 0.2.
Take UGCGAGCAAUAUUACGUCGC: the “self-splicing fitness (ln)” value was -1.88 ± 0.15 (30 °C) and -2.32 ± 0.23 (37 °C).
UGCGAGCAAUAUUACGUGAA: where the note is “37 °C”, the “self-splicing fitness (ln)” value is -2.32 ± 0.16.
For UGCGAGCAAUAUUACGUGCG, the “self-splicing fitness (ln)” value by setting is: (30 °C) -2.56 ± 0.27; (37 °C) -0.202 ± 0.3.
With UGCGAGCAAUAUUACGUUAU, the “self-splicing fitness (ln)” value (37 °C) is -3.11 ± 0.4.
On to UGCGAGCAAUAUUACGUUGC, for which the “self-splicing fitness (ln)” value (37 °C) is -1.17 ± 0.33.
Consider UGCUAGCAAUAUUACGAAAC, for which the “self-splicing fitness (ln)” value is, setting by setting: (30 °C) -2.87 ± 0.33; (37 °C) -2.17 ± 0.31.
Taken in the same sequence, the figures for UGCUAGCAAUAUUACGACAC were -3.83 ± 0.22 and -2.11 ± 0.16.
With UGCUAGCAAUAUUACGAGCU, the “self-splicing fitness (ln)” value (30 °C) was -0.987 ± 0.068 and the “self-splicing fitness (ln)” value (37 °C) was -0.622 ± 0.082.
Take UGCUAGCAAUAUUACGAGUC: the “self-splicing fitness (ln)” value by setting is: (30 °C) -3.43 ± 0.26; (37 °C) -2.5 ± 0.28.

Values taken from the supplement of paper PMC7877785.
